What was measured:
[1] = Small-scale anaerobic C—H amination with purified enzymes, azide 1; type: biochemical
Summary of the method: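 Purified P450 or P411 enzymes (0.1-0.5% catalyst loading) in 400 μL reactions of 0.1 M potassium phosphate pH 8.0 with a catalase/glucose oxidase oxygen-depletion system were made anaerobic under argon, given 10 μL of 80 mM arylsulfonyl azide in DMSO, and stirred 24 h at room temperature. After HCl quench and acetonitrile addition, sultam was quantified by HPLC at 220 nm against an internal standard; enantioselectivity was measured by chiral HPLC.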

[2] = Small-scale anaerobic C—H amination with purified enzymes, azide 4; type: biochemical; details: 0.1% loading; azide 4
Method: Hemin also was capable of catalyzing this reaction when reduced with dithionite (Table 13).
Small scale reactions containing either 0.1% loading of ABC-CIS or ABC-T268A or 1% loading of hemin with azides 1, 4, or 6 according to standard procedures.
Small-scale reactions (400 μL) were conducted in 2 mL crimp vials (Agilent Technologies, San Diego, Calif.) containing buffer (0.1 M potassium phosphate pH 8.0), enzyme (0.1-0.5% catalyst loading) and oxygen depletion system (10× stock solution containing 14,000 U/mL catalase, 1,000 U/mL glucose oxidase dissolved in 0.1 M KPi pH 8.0). Enzyme (P450 or P411) solution and oxygen depletion mixture were added to the vial with a small stir bar before crimp-sealing. Portions of phosphate buffer (190 μL, 0.1 M, pH=8.0), glucose (40 μL, 250 mM) and NADPH (40 μL, 20 mM), or multiples thereof, were combined in a larger crimp sealed vial and degassed by sparging with argon for at least 5 min. In the meantime, the headspace of the sealed 2 mL reaction vial with the P450 solution was made anaerobic by flushing argon over the protein solution (with no bubbling). The buffer/reductant/glucose solution (270 μL) was syringed into the reaction vial with continuous argon purge of the vial headspace. An arylsulfonyl azide solution in DMSO (10 μL, 80 mM) was added to the reaction vial via a glass syringe, and the reaction was left stirring for 24 h at room temperature under positive argon pressure. Final concentrations of the reagents were typically: 2 mM arylsulfonyl azide, 2 mM NADPH, 25 mM glucose, 2 or 10 μM P450. Reactions were quenched by adding 30 μL 3 M HCl under argon. To the vials were then added acetonitrile (430 uL) and internal standard (o-toluenesulfonamide 10 mM in 50% acetonitrile 50% water, 1 mM final concentration). […] A portion (20 μL) of the supernatant was then analyzed by HPLC. […] Sultam formation was quantified comparison of integrated peak areas of internal standard and sultam at 220 nm to a calibration curve made using synthetically produced sultam and internal standard.

[3] = CS heme-Na2S2O4 + NADPH (heme domain)
[4] = Complete system (CS), holoenzyme

B1: ABC-T268A: P450BM3 variant: T268A, C400S (protein, listed as Bacillus megaterium)
chain: TIKEMPQPKTFGELKNLPLLNTDKPVQALMKIADELGEIFKFEAPGRVTRYLSSQRLIKEACDESRFDKNLSQALKFVRDFAGDGLFTSWTHEKNWKKAHNILLPSFSQQAMKGYHAMMVDIAVQLVQKWERLNADEHIEVPEDMTRLTLDTIGLCGFNYRFNSFYRDQPHPFITSMVRALDEAMNKLQRANPDDPAYDENKRQFQEDIKVMNDLVDKIIADRKASGEQSDDLLTHMLNGKDPETGEPLDDENIRYQIITFLIAGHEATSGLLSFALYFLVKNPHVLQKAAEEAARVLVDPVPSYKQVKQLKYVGMVLNEALRLWPTAPAFSLYAKEDTVLGGEYPLEKGDELMVLIPQLHRDKTIWGDDVEEFRPERFENPSAIPQHAFKPFGNGQRASIGQQFALHEATLVLGMMLKHFDFEDHTNYELDIKETLTLKPEGFVVKAKSKKIPLGGIPSPSTEQSAKKVRKKAENAHNTPLLVLYGSNMGTAEGTARDLADIAMSKGFAPQVATLDSHAGNLPREGAVLIVTASYNGHPPDNAKQFVDWLDQASADEVKGVRYSVFGCGDKNWATTYQKVPAFIDETLAAKGAENIADRGEADASDDFEGTYEEWREHMWSDVAAYFNLDIENSEDNKSTLSLQFVDSAADMPLAKMHGAFSTNVVASKELQQPGSARSTRHLEIELPKEASYQEGDHLGVIPRNYEGIVNRVTARFGLDASQQIRLEAEEEKLAHLPLAKTVSVEELLQYVELQDPVTRTQLRAMAAKTVCPPHKVELEALLEKQAYKEQVLAKRLTMLELLEKYPACEMKFSEFIALLPSIRPRYYSISSSPRVDEKQASITVSVVSGEAWSGYGEYKGIASNYLAELQEGDTITCFISTPQSEFTLPKDPETPLIMVGPGTGVAPFRGFVQARKQLKEQGQSLGEAHLYFGCRSPHEDYLYQEELENAQSEGIITLHTAFSRMPNQPKTYVQHVMEQDGKKLIELLDQGAHFYICGDGSQMAPAVEATLMKSYADVHQVSEADARLWLQQLEEKGRYAKDVWAG
modifications: cytochrome P450NADPH-P-450 reductase precursor, cytochrome P450 (BM3), CYP102A1
notes: P450BM3 variant: T268A, C400S
Product (3) ([1]; 0.1% loading, azide 1, TTN): 135 | TTN ([1]; 0.1 mol % catalyst loading (2 μM), 2 mM azide 1, 2 mM NADPH, benzosultam 3): 120 | % ee ([1]; 0.1 mol % catalyst loading, (S−R)/(S+R), benzosultam 3): 58% | % activity ([1]; Boiled P450heme): 9.1% | % ee ([1]; Boiled P450heme): 3% | TTN ([1]; Boiled P450heme): 10 | % activity ([1]; Boiled P450holo): 30% | % ee ([1]; Boiled P450holo): 1% | TTN ([1]; Boiled P450holo): 33 | % activity ([1]; CS + CO): 4.4% | TTN ([1]; CS + CO): 5 | % activity ([1]; CS aerobic): 9.1% | % ee ([1]; CS aerobic): 60% | TTN ([1]; CS aerobic): 10 | % activity ([1]; CS heme): 145% | % ee ([1]; CS heme): 91% | TTN ([1]; CS heme (heme domain, 2 mM Na2S2O4)): 160 | % activity ([1]; CS heme + CO): 0% | TTN ([1]; CS heme + CO): 0 | % activity ([1]; CS heme aerobic): 0% | TTN ([1]; CS heme aerobic): 0 | % activity [1, 3]: 3.6% | TTN [1, 3]: 4 | % ee ([1]; CS-NADPH + Na2S2O4): 44% | TTN ([1]; CS-NADPH + Na2S2O4): 130 | % activity ([1]; CS-NADPH + Na2S2O4, residual activity (CS = 100%)): 120% | % ee [1, 4]: 38% | TTN [1, 4]: 110 | activity with reductant NADPH ([1]; NADPH (2 mM), 0.1 mol % loading, azide 1): 110 | activity with reductant Dithionite ([1]; dithionite (2 mM), 0.1 mol % loading, azide 1): 110 | Product (5) [2]: 22

From patent US20150267232A1, “IN VIVO AND IN VITRO CARBENE INSERTION AND NITRENE TRANSFER REACTIONS CATALYZED BY HEME ENZYMES” (California Institute of Technology, priority 2012, published 2015)
